The target of one experiment is T1, 4-1BB-Fc (human, UniProt Q07011 24-186).
T1 construct: extracellular domain; hinge included for covalent assembly; also called 4-1BB receptor-Fc fusion protein; not shown: human Fc gamma 1 region including the hinge region
The experiment can be described thus: ELISA, coated receptor-Fc. (In an ELISA, binding on a coated surface is turned into a signal by an enzyme label.)

Another experiment addresses T2, OX40-Fc (human, UniProt P43489 29-214).
T2 construct: extracellular domain; hinge included for covalent assembly; also called OX40 receptor-Fc fusion protein; not shown: human Fc gamma 1 region including the hinge region
T2 sequence (looked up): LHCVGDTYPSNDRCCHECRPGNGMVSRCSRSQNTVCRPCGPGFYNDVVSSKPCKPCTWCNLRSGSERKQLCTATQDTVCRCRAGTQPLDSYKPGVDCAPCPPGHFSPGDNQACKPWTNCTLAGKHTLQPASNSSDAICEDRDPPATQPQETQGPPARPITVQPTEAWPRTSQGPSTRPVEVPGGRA
The experiment can be described thus: ELISA, coated receptor-Fc.

Experiment [1] addresses T3, CD40 receptor on cells (human, UniProt P25942 21-277). The experiment can be described thus: cell-based or functional assay.
The target in experiment [2] is T4, CD40-Fc (human, UniProt P25942 21-193).
T4 construct: extracellular domain; hinge included for covalent assembly; also called CD40 receptor-Fc fusion protein; not shown: human Fc gamma 1 region including the hinge region
T4 sequence (P25942 21-193 limits assumed): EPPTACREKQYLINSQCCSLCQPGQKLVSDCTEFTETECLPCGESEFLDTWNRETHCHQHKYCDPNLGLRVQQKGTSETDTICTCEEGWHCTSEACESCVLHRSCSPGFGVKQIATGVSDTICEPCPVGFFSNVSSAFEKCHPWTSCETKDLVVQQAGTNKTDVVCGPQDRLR
The experiment is described as follows: ELISA, coated receptor-Fc. Here is the method: (§1) Receptor binding of the Duokines was analyzed by ELISA using fusion proteins of the extracellular region of CD40, CD27, 4-1BB and OX40, respectively, with the human Fcγ1 region including the hinge region for covalent assembly (CD40-Fc, CD27-Fc, 4-1BB-Fc, OX40-Fc). Receptor-Fc fusion proteins (200 ng/well) were coated overnight at 4° C. and remaining binding sites were blocked with PBS, 2% skimmed milk powder (2% MPBS).

In experiment [3] the target is T5, CD27-Fc (human, UniProt P26842 20-191).
T5 construct: extracellular domain; hinge included for covalent assembly; also called CD27 receptor-Fc fusion protein; not shown: human Fc gamma 1 region including the hinge region
T5 sequence (looked up): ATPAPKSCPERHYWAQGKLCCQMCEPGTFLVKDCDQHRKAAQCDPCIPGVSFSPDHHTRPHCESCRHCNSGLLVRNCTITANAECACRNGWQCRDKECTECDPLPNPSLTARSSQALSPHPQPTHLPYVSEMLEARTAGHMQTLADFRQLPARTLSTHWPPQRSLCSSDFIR
The experiment can be described thus: ELISA, coated receptor-Fc. The protocol: as §1

The target in experiment [4] is T4, CD40-Fc. The experiment can be described thus: ELISA, coated receptor-Fc. The source holds these as a separate data set.
The target in experiment [5] is T6, OX40 receptor on cells (human, UniProt P43489 29-277).
T6 sequence (looked up): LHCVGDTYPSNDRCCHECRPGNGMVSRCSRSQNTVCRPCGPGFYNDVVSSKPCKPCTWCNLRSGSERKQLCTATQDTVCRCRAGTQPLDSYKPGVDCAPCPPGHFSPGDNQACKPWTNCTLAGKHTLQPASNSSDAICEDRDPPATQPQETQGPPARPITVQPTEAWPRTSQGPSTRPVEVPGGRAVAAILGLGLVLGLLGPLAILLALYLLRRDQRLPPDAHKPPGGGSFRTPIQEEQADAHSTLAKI
The experiment is described as follows: cell-based or functional assay.

Experiment [6] addresses T5, CD27-Fc. The experiment can be described thus: ELISA, coated receptor-Fc. The protocol: (§2) Receptor binding of the single-chain Duokines was analyzed by ELISA using fusion proteins of the extracellular region of CD40, CD27, 4-1BB and OX40, respectively, with the human Fcγ1 region including the hinge region for covalent assembly (CD40-Fc, CD27-Fc, 4-1BB-Fc, OX40-Fc). Receptor-Fc fusion proteins (200 ng/well) were coated overnight at 4° C. and remaining binding sites were blocked with PBS, 2% skimmed milk powder (2% MPBS). […] The interactions between scDuokine and receptor were dose-dependent with EC₅₀ values in the low nanomolar ranges (FIG. 11 AB, Tab. 2).
This is another data set of the same source.

Experiment [7] deals with T6, OX40 receptor on cells. The experiment is described as follows: cell-based or functional assay. The source holds these as a separate data set.
In experiment [8] the target is T3, CD40 receptor on cells. The experiment is described as follows: cell-based or functional assay. The source holds these as a separate data set.
The target of experiment [9] is T4, CD40-Fc. The experiment is described as follows: ELISA, coated receptor-Fc. The protocol: as §2
The source holds these as a separate data set.

Read-outs that look alike come from different tables or passages of the source.

T3 sequence (P25942 21-277): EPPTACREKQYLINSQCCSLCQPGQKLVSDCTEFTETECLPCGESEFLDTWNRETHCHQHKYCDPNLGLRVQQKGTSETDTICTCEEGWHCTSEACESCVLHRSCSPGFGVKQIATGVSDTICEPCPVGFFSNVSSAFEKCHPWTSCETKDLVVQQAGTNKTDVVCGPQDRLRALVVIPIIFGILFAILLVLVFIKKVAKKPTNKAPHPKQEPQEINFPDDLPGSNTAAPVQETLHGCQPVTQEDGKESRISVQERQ

B1: CD27L-CD40L (ligand)
chain: SLGWDVAELQLNHTGPQQDPRLYWQGGPALGRSFLHGPELDKGQLRIHRDGIYMVHIQVTLAICSSTTASRHHPTTLAVGICSPASRSISLLRLSFHQGCTIASQRLTPLARGDTLCTNLTGTLLPSRNTDETFFGVQWVRPGGGGSGGGGSGGGGSGDQNPQIAAHVISEASSKTTSVLQWAEKGYYTMSNNLVTLENGKQLTVKRQGLYYIYAQVTFCSNREASSQAPFIASLCLKSPGRFERILLRAANTHSSAKPCGQQSIHLGGVFELQPGASVFVNVTDPSQVSHGTGFTSFGLLKL
notes: Duokine from HEK293, FLAG-purified; VH leader left out; homotrimer by SEC; also called Duokine CD27L-CD40L; not shown: N-terminal FLAG tag
Turning to B1, the binding result with 4-1BB-Fc and with OX40-Fc was “no binding (tested: 100 nM (FIG. 4))” each time. For the same molecule, the “Receptor activation (EC50, nM)” value with CD40 receptor on cells [1] came out at 2.99 nM. The EC50 (as a rule, the midpoint of the concentration-response curve) was 3.31 nM with CD40-Fc [2] and 5.9 nM with CD27-Fc [3].

B2: scOX40L-scCD27L (ligand)
chain: QVSHRYPRIQSIKVQFTEYKKEKGFILTSQKEDEIMKVQNNSVIINCDGFYLISLKGYFSQEVNISLHYQKDEEPLFQLKKVRSVNSLMVASLTYKDKVYLNVTTDNTSLDDFHVNGGELILIHQNPGEFCVLGGGSGGGQVSHRYPRIQSIKVQFTEYKKEKGFILTSQKEDEIMKVQNNSVIINCDGFYLISLKGYFSQEVNISLHYQKDEEPLFQLKKVRSVNSLMVASLTYKDKVYLNVTTDNTSLDDFHVNGGELILIHQNPGEFCVLGGGSGGGQVSHRYPRIQSIKVQFTEYKKEKGFILTSQKEDEIMKVQNNSVIINCDGFYLISLKGYFSQEVNISLHYQKDEEPLFQLKKVRSVNSLMVASLTYKDKVYLNVTTDNTSLDDFHVNGGELILIHQNPGEFCVLGGGGSGGGTGGGGSSLGWDVAELQLNHTGPQQDPRLYWQGGPALGRSFLHGPELDKGQLRIHRDGIYMVHIQVTLAICSSTTASRHHPTTLAVGICSPASRSISLLRLSFHQGCTIASQRLTPLARGDTLCTNLTGTLLPSRNTDETFFGVQWVRPGGGSGGGSLGWDVAELQLNHTGPQQDPRLYWQGGPALGRSFLHGPELDKGQLRIHRDGIYMVHIQVTLAICSSTTASRHHPTTLAVGICSPASRSISLLRLSFHQGCTIASQRLTPLARGDTLCTNLTGTLLPSRNTDETFFGVQWVRPGGGSGGGSLGWDVAELQLNHTGPQQDPRLYWQGGPALGRSFLHGPELDKGQLRIHRDGIYMVHIQVTLAICSSTTASRHHPTTLAVGICSPASRSISLLRLSFHQGCTIASQRLTPLARGDTLCTNLTGTLLPSRNTDETFFGVQWVRP
notes: scDuokine from HEK293, FLAG-purified; VH leader left out; also called single-chain Duokine scOX40L-scCD27L; not shown: N-terminal FLAG tag
Turning to B2, the binding result with CD40-Fc [4] and with 4-1BB-Fc was “no binding (tested: 100 nM (FIG. 10))” throughout. Further, the “Receptor activation (EC50, nM)” value with OX40 receptor on cells [5] is 1.27 nM. This molecule also returned a 50% effective concentration (EC50) in the experiment with CD27-Fc [6] of 4.62 nM.

B3: OX40L-CD27L (ligand)
chain: QVSHRYPRIQSIKVQFTEYKKEKGFILTSQKEDEIMKVQNNSVIINCDGFYLISLKGYFSQEVNISLHYQKDEEPLFQLKKVRSVNSLMVASLTYKDKVYLNVTTDNTSLDDFHVNGGELILIHQNPGEFCVLGGGGSGGGGSGGGGSSLGWDVAELQLNHTGPQQDPRLYWQGGPALGRSFLHGPELDKGQLRIHRDGIYMVHIQVTLAICSSTTASRHHPTTLAVGICSPASRSISLLRLSFHQGCTIASQRLTPLARGDTLCTNLTGTLLPSRNTDETFFGVQWVRP
notes: Duokine from HEK293, FLAG-purified; VH leader left out; homotrimer by SEC; also called Duokine OX40L-CD27L; not shown: N-terminal FLAG tag
Take B3: the binding result with CD40-Fc [4] and with 4-1BB-Fc was “no binding (tested: 100 nM (FIG. 4))” each time. Moreover, the “Receptor activation (EC50, nM)” value in the experiment with OX40 receptor on cells [7] came out at 6.58 nM. It took 1.7 nM to reach a half-maximal effect with CD27-Fc [3] (EC50).

B4: CD40L-CD27L (ligand)
chain: GDQNPQIAAHVISEASSKTTSVLQWAEKGYYTMSNNLVTLENGKQLTVKRQGLYYIYAQVTFCSNREASSQAPFIASLCLKSPGRFERILLRAANTHSSAKPCGQQSIHLGGVFELQPGASVFVNVTDPSQVSHGTGFTSFGLLKLGGGGSGGGGSGGGGSSLGWDVAELQLNHTGPQQDPRLYWQGGPALGRSFLHGPELDKGQLRIHRDGIYMVHIQVTLAICSSTTASRHHPTTLAVGICSPASRSISLLRLSFHQGCTIASQRLTPLARGDTLCTNLTGTLLPSRNTDETFFGVQWVRP
notes: Duokine from HEK293, FLAG-purified; VH leader left out; homotrimer by SEC; also called Duokine CD40L-CD27L; not shown: N-terminal FLAG tag
As to B4, the binding result with 4-1BB-Fc and with OX40-Fc was “no binding (tested: 100 nM (FIG. 4))” throughout. Also, in the experiment with CD40 receptor on cells [1], the “Receptor activation (EC50, nM)” value stood at 2.36 nM. In addition, the values for the half-maximal effective concentration (EC50) with CD40-Fc [2] and in the experiment with CD27-Fc [3] were 8.06 nM and 3.15 nM, respectively.

B5: scCD40L-scCD27L (ligand)
chain: GDQNPQIAAHVISEASSKTTSVLQWAEKGYYTMSNNLVTLENGKQLTVKRQGLYYIYAQVTFCSNREASSQAPFIASLCLKSPGRFERILLRAANTHSSAKPCGQQSIHLGGVFELQPGASVFVNVTDPSQVSHGTGFTSFGLLKLGGGSGGGGDQNPQIAAHVISEASSKTTSVLQWAEKGYYTMSNNLVTLENGKQLTVKRQGLYYIYAQVTFCSNREASSQAPFIASLCLKSPGRFERILLRAANTHSSAKPCGQQSIHLGGVFELQPGASVFVNVTDPSQVSHGTGFTSFGLLKLGGGSGGGGDQNPQIAAHVISEASSKTTSVLQWAEKGYYTMSNNLVTLENGKQLTVKRQGLYYIYAQVTFCSNREASSQAPFIASLCLKSPGRFERILLRAANTHSSAKPCGQQSIHLGGVFELQPGASVFVNVTDPSQVSHGTGFTSFGLLKLGGGGSGGGTGGGGSSLGWDVAELQLNHTGPQQDPRLYWQGGPALGRSFLHGPELDKGQLRIHRDGIYMVHIQVTLAICSSTTASRHHPTTLAVGICSPASRSISLLRLSFHQGCTIASQRLTPLARGDTLCTNLTGTLLPSRNTDETFFGVQWVRPGGGSGGGSLGWDVAELQLNHTGPQQDPRLYWQGGPALGRSFLHGPELDKGQLRIHRDGIYMVHIQVTLAICSSTTASRHHPTTLAVGICSPASRSISLLRLSFHQGCTIASQRLTPLARGDTLCTNLTGTLLPSRNTDETFFGVQWVRPGGGSGGGSLGWDVAELQLNHTGPQQDPRLYWQGGPALGRSFLHGPELDKGQLRIHRDGIYMVHIQVTLAICSSTTASRHHPTTLAVGICSPASRSISLLRLSFHQGCTIASQRLTPLARGDTLCTNLTGTLLPSRNTDETFFGVQWVRP
notes: scDuokine from HEK293, FLAG-purified; VH leader left out; also called single-chain Duokine scCD40L-scCD27L; not shown: N-terminal FLAG tag
On to B5, for which the binding result with 4-1BB-Fc and with OX40-Fc was “no binding (tested: 100 nM (FIG. 10))” each time. In the experiment with CD40 receptor on cells [8], the “Receptor activation (EC50, nM)” value came to 3.1 nM. Further, the concentration for a half-maximal effect (EC50) is 4.26 nM with CD40-Fc [9] and 3.42 nM with CD27-Fc [6].

These data come from patent US20190276511A1 (BIONTECH RNA PHARMACEUTICALS, published 2019).
